“Also recorded” adds a separate entry of the source.
Key:
[1] = Competitive binding (RBA) with 2 nM [3H]-E2, testosterone
[2] = Scatchard analysis of E2 binding to wild-type and mutant hERαLBD proteins; conditions: n = 2-3, error = range (n = 2) or S.E. (n > 2)
progesterone = assay: Yeast two-hybrid based cell growth assay, response to progesterone; conditions: in yeast; saturating ligand concentration 10^−5 M
Method: (§1) A yeast two-hybrid based cell growth assay was used to quantify the ligand activity of the wild-type and mutant hERαLBD in 96-well plates (Chen, et al. (2004) supra). Briefly, yeast cells harboring the plasmid containing the target hERαLBD and plasmid pGAD424 SRC-1 were grown to saturation (OD600 4-5) in 2-3 mL minimal medium lacking tryptophan and leucine, and then diluted to OD600 0.002 using minimal medium lacking tryptophan, leucine and histidine. Each well contained 200 μL diluted yeast cells and 0.2 μL of specified ligand dissolved in 100% ethanol (E2, testosterone, and progesterone) or DMSO (corticosterone). The 96-well plates were incubated at 30° C. for 24 hours and the cell density was measured at 600 nm using a SPECTRAMAX® plate reader (Molecular Devices, Sunnyvale, Calif.).

[3] = Competitive binding (RBA) with 2 nM [3H]-E2, corticosterone
[4] = Competitive binding (RBA) with 2 nM [3H]-E2, progesterone
corticosterone = assay: Yeast two-hybrid based cell growth assay, response to corticosterone; conditions: in yeast; corticosterone 10^−4 M, 24 hours (up to four days at 30° C.)
Method: as §1

[5] = RBA = EC50^E2/EC50^ligand × 100, 2 nM [3H]-E2

B1: Pg10-1: hERαLBD variant with Glu353Gln, Gly390Asp, His524Asn, Leu536His, Thr585Ser (SEQ ID NOs:11 and 12) (protein)
chain: MTMTLHTKASGMALLHQIQGNELEPLNRPQLKIPLERPLGEVYLDSSKPAVYNYPEGAAYEFNAAAAANAQVYGQTGLPYGPGSEAAAFGSNGLGGFPPLNSVSPSPLMLLHPPPQLSPFLQPHGQQVPYYLENEPSGYTVREAGPPAFYRPNSDNRRQGGRERLASTNDKGSMAMESAKETRYCAVCNDYASGYHYGVWSCEGCKAFFKRSIQGHNDYMCPATNQCTIDKNRRKSCQACRLRKCYEVGMMKGGIRKDRRGGRMLKHKRQRDDGEGRGEVGSAGDMRAANLWPSPLMIKRSKKNSLALSLTADQMVSALLDAEPPILYSEYDPTRPFSEASMMGLLTNLADRQLVHMINWAKRVPGFVDLTLHDQVHLLECAWLEILMIDLVWRSMEHPGKLLFAPNLLLDRNQGKCVEGMVEIFDMLLATSSRFRMMNLQGEEFVCLKSIILLNSGVYTFLSSTLKSLEEKDHIHRVLDKITDTLIHLMAKAGLTLQQQHQRLAQLLLILSHIRHMSNKGMENLYSMKCKNVVPHYDLLLEMLDAHRLHAPTSRGGASVEETDQSHLATAGSTSSHSLQKYYISGEAEGFPATV
For B1, the “RBA T (testosterone)” value [1, 5] was 0.21 ± 0.06 (3), the Kd ([1]; calculated with Kd^ligand = (Kd^E2/RBA) × 100, read-out: Kd T (testosterone)) was 388 nM and the Kd [2] was 0.81 ± 0.23 nM. The response to progesterone (progesterone) was “responses to progesterone at nanomolar concentrations”, the “RBA Cs (corticosterone)” value [3, 5] was 0.008 ± 0.001 (3) and the Kd ([3]; calculated with Kd^ligand = (Kd^E2/RBA) × 100, read-out: Kd Cs (corticosterone)) was 10300 nM. The “RBA Pg (progesterone)” value [4, 5] was 0.679 ± 0.021 (3), the Kd ([4]; calculated with Kd^ligand = (Kd^E2/RBA) × 100, read-out: Kd Pg (progesterone)) was 119 nM and the response to corticosterone (corticosterone) was “significant responses to corticosterone; also recorded: responded to corticosterone at submillimolar concentrations”.

Reference: patent US20060183159A1, “Method for engineering a protein by in vitro coevolution” (priority 2005, published 2006)
